Assay results from PMC8914023.

Key:
[1] = target: EhP3 (Entamoeba histolytica 14-3-3 protein isoform 3) (Entamoeba histolytica); assay: SPR; Autolab ESPIRIT; EhP3 immobilised; EhActo flowed at increasing concentrations; 10 mM HEPES, 0.2 mM calcium acetate, 0.005% Triton-X100; 25°C
[2] = target: F-actin (rabbit muscle actin filaments) (rabbit) (UniProt P68135); assay: SPR

Sequence of EhP3 (Entamoeba histolytica 14-3-3 protein isoform 3) (Entamoeba histolytica) (C4M0F4 whole entry, canonical isoform): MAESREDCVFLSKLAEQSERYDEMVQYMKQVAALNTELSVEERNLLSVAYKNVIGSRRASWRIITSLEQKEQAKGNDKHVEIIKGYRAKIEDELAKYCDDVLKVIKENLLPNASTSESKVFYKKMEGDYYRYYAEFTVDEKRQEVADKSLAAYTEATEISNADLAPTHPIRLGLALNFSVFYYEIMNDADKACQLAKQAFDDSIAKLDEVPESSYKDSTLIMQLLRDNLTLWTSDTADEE

Substance: Entamoeba histolytica actophorin (EhActo) (from UniProt C4LVG4 1-138) (natural protein)
- Kd [1]: 1 µM
- Kd [2]: 0.249 µM
